Measured values published in patent US20160194644A1 (COMMISSARIAT A L ENERGIE ATOMIQUE ET AUX ENERGIES …, published 2016).

Biological target: T1, Flag-RNF185 (wild type, full length human RNF185 with N-terminal Flag tag) (human, UniProt Q96GF1 2-192)
T1 construct: Expressed by transfection in HEK293T cells; co-immunoprecipitation from lysates; For the CFTR co-IP, cells expressing WT RNF185 were treated with MG132 for 5 hours; also called RNF185 WT; Flag-tagged RNF185
T1 sequence: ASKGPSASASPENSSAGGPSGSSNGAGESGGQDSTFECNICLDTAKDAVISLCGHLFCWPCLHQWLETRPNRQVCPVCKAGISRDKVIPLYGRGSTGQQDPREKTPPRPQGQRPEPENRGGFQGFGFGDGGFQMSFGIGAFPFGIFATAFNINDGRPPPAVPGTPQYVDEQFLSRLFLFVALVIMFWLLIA
Assay: Flag co-immunoprecipitation from HEK293T cell lysates

binding result: no binding
B1: Ubc7/UBE2G1 (enzyme, UniProt P62253 1-170, looked up)
chain: MTELQSALLLRRQLAELNKNPVEGFSAGLIDDNDLYRWEVLIIGPPDTLYEGGVFKAHLTFPKDYPLRPPKMKFITEIWHPNVDKNGDVCISILHEPGEDKYGYEKPEERWLPIHTVETIMISVISMLADPNGDSPANVDAAKEWREDRNGEFKRKVARCVRKSQETAFE
notes: the construct is not described
